Assay results published in the Human Domainome abundance scans (Beltran et al. 2025).
± gives the uncertainty stated by the source.

B1: Zinc finger MYM-type protein 2, residues 463 to 506; numbered along this chain, Q9UBW7 (parent)
chain: IMNCCEQCGEYLPSKGAGNNVLVIDGQQKRFCCQSCVSEYKQVG
B2: Transcription intermediary factor 1-beta, residues 620 to 671; numbered along this chain, Q13263 (parent)
chain: TLDDSATICRVCQKPGDLVMCNQCEFCFHLDCHLPALQDVPGEEWSCSLCHV

Variants of: B1
Assay: abundance fitness (aPCA) (normalised: wild type 0, dead -1); higher = more abundant; growth selection in yeast, the domain comes from the species named
Settings: Homo sapiens

Abundance fitness: each site, then its substitutions
C5: A -0.65 ± 0.09
C4: H 0.019 ± 0.18, D -0.007 ± 0.12, P -0.126 ± 0.086, Q 0.142 ± 0.12, G -0.089 ± 0.072, V -0.029 ± 0.078, T -0.021 ± 0.085, K 0.125 ± 0.12, R 0.012 ± 0.069, S 0.25 ± 0.11, N 0.214 ± 0.24, L -0.09 ± 0.07, A -0.147 ± 0.086, M -0.146 ± 0.11, Y -0.45 ± 0.17, W -0.242 ± 0.11
N3: C -0.215 ± 0.36, G -0.119 ± 0.076, A -0.09 ± 0.073, V -0.366 ± 0.1, D -0.045 ± 0.12, W -0.402 ± 0.12, F -0.035 ± 0.34, S -0.141 ± 0.079, P -0.345 ± 0.084, Q -0.232 ± 0.09, T -0.249 ± 0.097, I -0.237 ± 0.32, H -0.154 ± 0.1, E -0.036 ± 0.087, M -0.194 ± 0.092, K -0.231 ± 0.089
I1: A -0.051 ± 0.085, S -0.172 ± 0.12, G -0.15 ± 0.089, D 0.231 ± 0.19, L -0.246 ± 0.29, T -0.162 ± 0.14, W -0.746 ± 0.13, Y -0.402 ± 0.21, R -0.255 ± 0.094, V 0 ± 0.1, P -0.222 ± 0.33, N 0.097 ± 0.1, E -0.012 ± 0.14, F -0.307 ± 0.13, M 0.169 ± 0.22
M2: Q -0.141 ± 0.24, I -0.145 ± 0.1, E 0.118 ± 0.12, P -0.376 ± 0.15, D -0.049 ± 0.15, A -0.162 ± 0.1, R -0.179 ± 0.079, W -0.687 ± 0.18, K 0.124 ± 0.1, C -0.286 ± 0.13, T -0.059 ± 0.097, S 0.073 ± 0.087, G -0.148 ± 0.074, N -0.009 ± 0.29, L -0.104 ± 0.093, H -0.25 ± 0.19

Variants of: B2
Assay: as above
Settings: Homo sapiens

Abundance fitness: each site, then its substitutions
P41: A -0.368 ± 0.13, D -0.245 ± 0.21, H -0.513 ± 0.18, N -0.112 ± 0.17, M -0.303 ± 0.16, Q -0.204 ± 0.17, T -0.619 ± 0.22, S -0.374 ± 0.14, I -0.302 ± 0.18, K -0.645 ± 0.25, V -0.254 ± 0.11, W -0.258 ± 0.2, F -0.439 ± 0.15, E -0.073 ± 0.14, C -0.242 ± 0.14, G -0.202 ± 0.11, R -0.26 ± 0.096
S46: C -0.116 ± 0.091, L -0.003 ± 0.078, F -0.129 ± 0.11, I -0.01 ± 0.12, M 0.082 ± 0.1, P -0.208 ± 0.13, R -0.101 ± 0.074, A 0.128 ± 0.077, V 0.059 ± 0.072, W -0.131 ± 0.098, Q 0.118 ± 0.094, E 0.111 ± 0.082, Y -0.245 ± 0.12, H -0.113 ± 0.14, N 0.018 ± 0.13, K 0.155 ± 0.1, T -0.09 ± 0.11
D39: S -0.227 ± 0.12, G -0.235 ± 0.098, I -0.121 ± 0.16, N -0.551 ± 0.27, A -0.175 ± 0.16, H -0.268 ± 0.21, F -0.214 ± 0.17, T -0.089 ± 0.19, W -0.545 ± 0.14, C -0.212 ± 0.15, V 0.026 ± 0.099, Q -0.184 ± 0.17, E 0.287 ± 0.16, R -0.222 ± 0.1, Y -0.206 ± 0.17, M -0.24 ± 0.14, K -0.272 ± 0.21
C47: E -0.295 ± 0.088, H -0.572 ± 0.14, M -0.794 ± 0.12, N -0.382 ± 0.12, D -0.456 ± 0.12, L -0.864 ± 0.1, R -0.552 ± 0.079, K -0.466 ± 0.11, Y -0.736 ± 0.17, I -1.05 ± 0.22, P -0.484 ± 0.12, Q -0.636 ± 0.14, G -0.33 ± 0.075, S -0.343 ± 0.083, V -0.807 ± 0.089, W -0.951 ± 0.11, T -0.565 ± 0.11
C50: Y -1.03 ± 0.34, F -0.315 ± 0.18, K -0.1 ± 0.16, G -0.278 ± 0.098, S -0.462 ± 0.12, T -0.386 ± 0.13, L -0.797 ± 0.11, R -0.214 ± 0.11, Q -0.329 ± 0.16, P 0.037 ± 0.15, D -0.183 ± 0.17, A -0.112 ± 0.096, M -0.65 ± 0.19, E -0.232 ± 0.12, V -0.513 ± 0.1, N -0.505 ± 0.35
Q38: E -0.434 ± 0.16, W -0.482 ± 0.12, G -0.181 ± 0.1, P -0.437 ± 0.15, F -0.39 ± 0.14, H -0.279 ± 0.2, T -0.345 ± 0.13, Y -0.417 ± 0.17, C -0.401 ± 0.16, L -0.227 ± 0.09, R 0.023 ± 0.091, M -0.443 ± 0.15, A -0.02 ± 0.1, K -0.18 ± 0.17, V -0.132 ± 0.099, S -0.295 ± 0.099, I 0.079 ± 0.15, N 0.082 ± 0.2
V40: P 0.264 ± 0.19, A -0.323 ± 0.14, C -0.401 ± 0.17, W -0.101 ± 0.14, D -0.02 ± 0.15, G -0.301 ± 0.1, E -0.403 ± 0.17, K -0.221 ± 0.35, S -0.121 ± 0.11, L -0.221 ± 0.11, N -0.218 ± 0.2, M -0.213 ± 0.22, H -0.361 ± 0.24, R 0.166 ± 0.098, F 0.01 ± 0.12, Y -0.121 ± 0.22, Q -0.383 ± 0.21, I -0.401 ± 0.23
V52: A 0.197 ± 0.14, S 0.075 ± 0.27, R 0.137 ± 0.15, G -0.32 ± 0.19, P 0.041 ± 0.17, D -0.267 ± 0.23, L -0.369 ± 0.17, Y -0.284 ± 0.39, I -0.354 ± 0.13, H -0.479 ± 0.44, F -0.18 ± 0.19, T -0.11 ± 0.21, C -0.289 ± 0.31
E43: D 0.088 ± 0.17, A 0.035 ± 0.11, I -0.092 ± 0.14, W -0.2 ± 0.1, V -0.165 ± 0.086, H 0.062 ± 0.22, Y -0.486 ± 0.22, Q -0.298 ± 0.19, N -0.089 ± 0.37, L -0.085 ± 0.086, S -0.007 ± 0.095, C -0.129 ± 0.12, P -0.032 ± 0.14
S48: W 0.057 ± 0.13, F -0.45 ± 0.18, D -0.242 ± 0.17, R 0.105 ± 0.087, G -0.071 ± 0.083, L -0.409 ± 0.097, N -0.114 ± 0.28, H 0.052 ± 0.21, Q -0.234 ± 0.18, M 0.386 ± 0.1, Y -0.094 ± 0.14, T -0.217 ± 0.1, P 0.152 ± 0.12, V -0.508 ± 0.085, I -0.798 ± 0.2, E -0.014 ± 0.12, C -0.324 ± 0.2, A -0.112 ± 0.1
G42: L -0.086 ± 0.092, Q -0.028 ± 0.22, M -0.091 ± 0.14, W -0.302 ± 0.14, R -0.074 ± 0.099, A 0.014 ± 0.085, K 0.095 ± 0.16, Y -0.421 ± 0.21, T 0.174 ± 0.12, S -0.265 ± 0.13, V -0.107 ± 0.099, H 0.083 ± 0.24, E -0.139 ± 0.15, F -0.161 ± 0.22, P -0.085 ± 0.13, C -0.222 ± 0.16
E44: R -0.08 ± 0.095, Y -0.143 ± 0.23, L -0.253 ± 0.087, P -0.369 ± 0.13, I -0.35 ± 0.18, T -0.164 ± 0.14, C 0.058 ± 0.15, S -0.07 ± 0.11, F -0.412 ± 0.2, M -0.058 ± 0.12, K -0.172 ± 0.13, A -0.226 ± 0.11, N -0.16 ± 0.2, G -0.042 ± 0.11, Q -0.057 ± 0.13, V -0.217 ± 0.085
H51: I -0.264 ± 0.18, G -0.302 ± 0.096, C -0.281 ± 0.22, L -0.063 ± 0.12, K -0.415 ± 0.17, V -0.023 ± 0.094, M 0.021 ± 0.13, W -0.345 ± 0.19, N -0.528 ± 0.21, Q 0.148 ± 0.16, D 0.041 ± 0.11, T 0.31 ± 0.17, R 0.081 ± 0.11, S 0.109 ± 0.11, F -0.452 ± 0.24, Y -0.553 ± 0.41, E 0.107 ± 0.15, P 0.248 ± 0.17
L37: F -0.344 ± 0.2, M -0.083 ± 0.14, D -0.278 ± 0.21, Q -0.108 ± 0.17, S -0.071 ± 0.11, Y -0.27 ± 0.18, C -0.021 ± 0.12, W 0.118 ± 0.13, N -0.334 ± 0.35, K -0.421 ± 0.2, R -0.106 ± 0.096, E -0.499 ± 0.17, H -0.215 ± 0.24, P -0.138 ± 0.14, T 0.035 ± 0.14, V -0.094 ± 0.096
L49: R 0.219 ± 0.075, I -0.045 ± 0.14, S 0.303 ± 0.08, K 0.27 ± 0.11, V -0.09 ± 0.082, W 0.066 ± 0.076, P 0.1 ± 0.098, N 0.46 ± 0.13, Y 0.131 ± 0.12, E 0.389 ± 0.092, C -0.282 ± 0.14, H 0.496 ± 0.15, T 0.301 ± 0.086, G 0.334 ± 0.066, M 0 ± 0.092, Q 0.263 ± 0.12, A 0.205 ± 0.076, D 0.277 ± 0.1, F 0.192 ± 0.12
A36: Y -0.499 ± 0.2, T -0.161 ± 0.17, W -0.527 ± 0.17, V 0.06 ± 0.093, S 0.079 ± 0.11
W45: M -0.296 ± 0.2, H -0.103 ± 0.2, R -0.131 ± 0.089, A 0.051 ± 0.13, E -0.158 ± 0.14, V -0.236 ± 0.099, I -0.254 ± 0.16, Q -0.085 ± 0.22, D -0.506 ± 0.14, T -0.54 ± 0.16, Y -0.202 ± 0.19, N -0.377 ± 0.3, F -0.342 ± 0.16, C -0.283 ± 0.11, G -0.137 ± 0.086, L -0.195 ± 0.091
